From IntAct's records for PubMed 18775314

B1: Vesicle-associated membrane protein 7 (Homo sapiens), P51809 (parent)
chain: MAILFAVVARGTTILAKHAWCGGNFLEVTEQILAKIPSENNKLTYSHGNYLFHYICQDRIVYLCITDDDFERSRAFNFLNEIKKRFQTTYGSRAQTALPYAMNSEFSSVLAAQLKHHSENKGLDKVMETQAQVDELKGIMVRNIDLVAQRGERLELLIDKTENLVDSSVTFKTTSRNLARAMCMKNLKLTIIIIIVSIVFIYIIVSPLCGGFTWPSCVKK
partner: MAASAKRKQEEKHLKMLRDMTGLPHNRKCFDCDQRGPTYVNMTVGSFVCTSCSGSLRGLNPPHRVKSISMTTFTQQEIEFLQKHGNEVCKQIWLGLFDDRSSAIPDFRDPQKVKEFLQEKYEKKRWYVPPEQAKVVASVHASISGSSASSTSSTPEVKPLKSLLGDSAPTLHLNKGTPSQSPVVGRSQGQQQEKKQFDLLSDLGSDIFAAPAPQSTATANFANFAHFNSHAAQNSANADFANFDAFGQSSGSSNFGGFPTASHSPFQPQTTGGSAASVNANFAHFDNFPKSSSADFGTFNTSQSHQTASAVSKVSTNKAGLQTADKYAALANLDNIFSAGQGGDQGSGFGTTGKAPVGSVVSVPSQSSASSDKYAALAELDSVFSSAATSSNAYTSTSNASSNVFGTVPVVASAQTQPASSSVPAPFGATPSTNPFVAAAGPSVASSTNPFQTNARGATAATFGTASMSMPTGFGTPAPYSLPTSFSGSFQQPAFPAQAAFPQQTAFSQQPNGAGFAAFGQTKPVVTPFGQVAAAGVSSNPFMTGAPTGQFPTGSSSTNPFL
B2: Arf-GAP domain and FG repeat-containing protein 1 (Homo sapiens), P52594 (parent)
chain: B1 partner

Variants of: B1
Conditions: with agfg1_human AGFG1, P52594

Row | effect of a mutation on the interaction | Variant
1 | decreasing interaction | L43S;Y45S

Variants of: B1
Conditions: with agfg1_human AGFG1, P52594
Remark: another data set of the same source

Row | effect of a mutation on the interaction | Variant
2 | decreasing interaction | L43S;Y45S

Variants of: B2
Conditions: with vamp7_human VAMP7, P51809

Row | effect of a mutation on the interaction | Variant
3 | decreasing interaction | L171S;L173S
4 | decreasing interaction | L160S;L163S
5 | decreasing interaction | L163S;L164S

Variants of: B2
Conditions: with vamp7_human VAMP7, P51809
Remark: another data set of the same source

Row | effect of a mutation on the interaction | Variant
6 | decreasing interaction | L163S;L164S
